Source: US20100144634A1 (published 2010)

Legend:
[1] = target: von Willebrand factor (VWF), purified plasma-derived, multimeric, native (UniProt P04275); experiment: cell-based or functional assay
[2] = target: von Willebrand factor (VWF), purified plasma-derived, multimeric, native (UniProt P04275); experiment: SPR (BIAcore), VWF injected under flow over immobilised T5-8CUB, equilibrium fit
[3] = target: von Willebrand factor (VWF), purified plasma-derived, multimeric, native (UniProt P04275)
[4] = target: von Willebrand factor (VWF), purified plasma-derived, multimeric, native (UniProt P04275); experiment: SPR (BIAcore) under laminar flow
[5] = target: von Willebrand factor (VWF), purified plasma-derived, multimeric, native (UniProt P04275); experiment: microtiter plate binding (ELISA format, anti-V5 detection), VWF immobilised, static
[6] = target: von Willebrand factor (VWF), purified plasma-derived, multimeric, native (UniProt P04275); experiment: SPR (BIAcore), VWF injected under flow over immobilised delCUB, equilibrium fit, no EDTA
[7] = target: von Willebrand factor pre-denatured with 1.5 M guanidine-HCl at 37 C for two hours (UniProt P04275); experiment: SPR (BIAcore), guanidine-HCl denatured VWF injected over immobilised delCUB, equilibrium fit
[8] = target: von Willebrand factor (VWF), purified plasma-derived, multimeric, native (UniProt P04275); experiment: SPR (BIAcore), VWF injected under flow over immobilised delCUB, equilibrium fit, in the presence of 10 mM EDTA
[9] = target: von Willebrand factor pre-denatured with 1.5 M guanidine-HCl at 37 C for two hours (UniProt P04275); experiment: SPR (BIAcore), guanidine-HCl denatured VWF injected over immobilised MDTCS, equilibrium fit
[10] = target: von Willebrand factor (VWF), purified plasma-derived, multimeric, native (UniProt P04275); experiment: microtiter binding assay, immobilised vWF
[11] = target: recombinant vWF expressed in BHK cells overexpressing PACE/furin (UniProt P04275); experiment: cell-based or functional assay
[12] = target: von Willebrand factor (VWF), purified plasma-derived, multimeric, native (UniProt P04275); experiment: SPR (BIAcore) under flow
[13] = target: von Willebrand factor (VWF), purified plasma-derived, multimeric, native (UniProt P04275); experiment: SPR (BIAcore), VWF injected under flow over immobilised T2-8CUB, equilibrium fit

For “ADAMTS13 TSP1 5-8 repeats plus CUB domains, N-terminal linker and Flag, C-terminal V5-His (from UniProt Q76LX8 884-1191; Q76LX8 1192-1427)”, the inhibition of proteolytic cleavage of VWF by ADAMTS13 under vortex-induced shear stress, fragment at 150 nM [1] was 75% and the Kd [2] was 212 nM.

For “ADAMTS13 variant truncated after the 8th TSP-1 repeat (lacking the CUB domains), C-terminal V5-His”, the “cleavage of VWF under vortex-induced mechanic shear stress” value [3] was “A removal of the CUB domains (delCUB) or more (MDTCS) abrogates its ability to cleave VWF”.

In the case of “ADAMTS13 variant truncated after the 8th TSP-1 repeat (lacking the CUB domains), C-terminal V5-His (from UniProt Q76LX8 75-1191) (enzyme)”, the fold reduction in affinity against full-length ADAMTS13 [4] is reported as 5 fold, the Kd [5] is reported as 70 nM and the Kd [6] is reported as 274 nM. It also gave a Kd [7] of 242 nM and a Kd [8] of 468 nM.

With “ADAMTS13 variant truncated after the spacer domain, C-terminal V5-His” the “cleavage of VWF under vortex-induced mechanic shear stress” value [3] was “A removal of the CUB domains (delCUB) or more (MDTCS) abrogates its ability to cleave VWF”.

“ADAMTS13 variant truncated after the spacer domain, C-terminal V5-His (from UniProt Q76LX8 75-685) (enzyme)” gave a Kd [5] of 56 nM and a Kd [9] of 337 nM.

With “B-domainless derivative of human factor VIII, FVIII-SQ (from UniProt P00451 20-762; P00451 1657-1667; P00451 1668-2351)” the half-maximal effect on vWF proteolysis by ADAMTS13 [1] was 2.5 nM and the increase in vWF proteolysis by ADAMTS13 under shear stress [1] was 10 fold.

Molecule “isolated light chain of FVIII (from UniProt P00451 1668-2351)” has a concentration of FVIII-LC achieving the half maximal rate enhancing effect (IC50) [1] of 2 nM, an increase of the maximal proteolytic cleavage product (˜350 kDa) with 5 nM FVIII-LC [1] of 7 to 8 fold and a Kd [10] of 17 nM.

In the case of “recombinant human full-length coagulation factor VIII (from UniProt P00451 20-1667; P00451 1668-2351)”, the half-maximal effect of FVIII on cleavage of rvWF by ADAMTS13 [11] is reported as 3 nM, the increase in product formation with rvWF as substrate in the presence of 20 nM FVIII [11] is reported as 10 fold and the Km of the enhancement of VWF cleavage by ADAMTS13 [1] is reported as 2 to 3 nM. The concentration of FVIII required for half maximal enhancement in product formation [1] was 3 nM, the enhancement of ADAMTS13 cleavage of plasma vWF (350K product) in the presence of 10-20 nM FVIII [1] was 10 to 12 fold and the half maximal effect of rFVIII on proteolytic cleavage of VWF by ADAMTS13 [1] was 2.9 nM.

B1: ADAMTS13 TSP1 2-8 repeats plus CUB domains, N-terminal linker and Flag, C-terminal V5-His (protein, not shown: small tags and cut ends)
chain: AAQPARRARRTKLALDTKDDDDKHVWTPVAWVWAAVRGPCSVSCGAGLRWVNYSCLDQARKELVETVQCQGSQQPPAWPEACVLEPCPPYWAVGDFGPCSASCGGGLRERPVRCVEAQGSLLKTLPPARCRAGAQQPAVALETCNPQPCPARWEVSEPSSCTSAGGAGLALENETCVPGADGLEAPVTEGPGSVDEKLPAPEPCVGMSCPPGWGHLDATSAGEKAPSPWGSIRTGAQAAHVWTPAAGSCSVSCGRGLMELRFLCMDSALRVPVQEELCGLASKPGSRREVCQAVPCPARWQYKLAACSVSCGRGVVRRILYCARAHGEDDGEEILLDTQCQGLPRPEPQEACSLEPCPPRWKVMSLGPCSASCGLGTARRSVACVQLDQGQDVEVDEAACAALVRPEASVPCLIADCTYRWHVGTWMECSVSCGDGIQRRRDTCLGPQAQAPVPADFCQHLPKPVTVRGCWAGPCVGQGTPSLVPHEEAAAPGRTTATPAGASLEWSQARGLLFSPAPQPRRLLPGPQENSVQSSACGRQHLEPTGTIDMRGPGQADCAVAIGRPLGEVVTLRVLESSLNCSAGDMLLLWGRLTWRKMCRKLLDMTFSSKTNTLVVRQRCGRPGGGVLLRYGSQLAPETFYRECDMQLFGPWGEIVSPSLSPATSNAGGCRLFINVAPHARIAIHALATNMGAGTEGANASYILIRDTHSLRTTAFHGQQVLYWESESSQAEMEFSEGFLKAQASLRGQYWTLQSWVPEMQDPQSWKGKEGT
B1 showed an inhibition of proteolytic cleavage of VWF by ADAMTS13 under vortex-induced shear stress, fragment at 150 nM [1] of 100%, a fold increase in affinity against T5-8CUB [12] of 1.5 fold and a Kd [13] of 140 nM.
